Measurements reported in patent US20070092518A1 (published 2007).
Numbering of substitutions follows the chain as printed.

B1: SEQ ID NO 121 (Fab, V domains shown)
VH: EVQLVESGGGLVQPGGSLRLSCAASQFTFSNHYMNWVRQAPGKGLEWIGEIRSKSINSATHYAESVKGRFIISRDDNGNDLYLEMNSLKTEDTAEYYCAQNYYGSTYDYWGQGTLVTVS
VL: EIVLTQSPDFQSVTPKEKVTITCRASQFVGSSIHWYQQKPDQSPKLLIKYASESMSGVPSRFSGSGSGTDFTFTISSLEAEDAATYYCQQSHSWPFTFGPGTKVDIK
notes: Fab, E. coli lysate
B2: SEQ ID NO 25 (Fab, V domains shown)
VH: B1 VH with A23R, T28I, D76G, G78K, N79T, D80S, Y107P
VL: B1 VL
notes: Fab, E. coli lysate
B3: SEQ ID NO 11 (Fab, V domains shown)
VH: B1 VH with V5T, Q26G, T28I, Y33W, S58G, H61S, G78K, N79T, D80S
VL: B1 VL
notes: Fab, E. coli lysate
B4: SEQ ID NO 7 (Fab, V domains shown)
VH: B1 VH with V5T, Y33W, I56S, G78K, N79T
VL: B1 VL
notes: Fab, E. coli lysate
B5: SEQ ID NO 64 (Fab, V domains shown)
VH: B1 VH with V5T, Y33W, N57Y, S58G, G78K, N79T, D80S, Q100R, Y107P
VL: B1 VL
notes: Fab, E. coli lysate
B6: SEQ ID NO 18 (Fab, V domains shown)
VH: B1 VH with A23R, I56S, S58G, H61S, D76G, D80S, Y82T, Q100R
VL: B1 VL
notes: Fab, E. coli lysate
B7: SEQ ID NO 61 (Fab, V domains shown)
VH: B1 VH with A23R, Q26G, T28I, N57Y, S58G, D76G, Q100R
VL: B1 VL
notes: Fab, E. coli lysate
B8: SEQ ID NO 22 (Fab, V domains shown)
VH: B1 VH with A23R, Q26G, F27S, Y33W, I56S, D80S, Y82T
VL: B1 VL
notes: Fab, E. coli lysate
B9: SEQ ID NO 44 (Fab, V domains shown)
VH: B1 VH with V5T, Q26G, Y33W, I56S, N57Y, G78K, N79T, Y82T, Q100R
VL: B1 VL
notes: Fab, E. coli lysate
B10: SEQ ID NO 21 (Fab, V domains shown)
VH: B1 VH with V5T, Y33W, N57Y, S58G, Q100R
VL: B1 VL
notes: Fab, E. coli lysate
B11: SEQ ID NO 17 (Fab, V domains shown)
VH: EVQLTESGGGLVQPGGSLRLSCRASGFTFSNHWMNWVRQAPGKGLEWIGEIRSKSSYSATHYAESVKGRFIISRDDNKTSLYLEMNSLKTEDTAEYYCARNYYGSTPDYWGQGTLVTVS
VL: B1 VL
notes: Fab, E. coli lysate
B12: SEQ ID NO 40 (Fab, V domains shown)
VH: B1 VH with Q26G, F27S, H61S, D76G, N79T, D80S, Q100R
VL: B1 VL
notes: Fab, E. coli lysate
B13: SEQ ID NO 43 (Fab, V domains shown)
VH: B1 VH with A23R, Q26G, F27S, T28I, Y33W, S58G, H61S, D80S, Y82T, Y107P
VL: B1 VL
notes: Fab, E. coli lysate
B14: SEQ ID NO 46 (Fab, V domains shown)
VH: B1 VH with A23R, Q26G, F27S, I56S, N57Y, S58G, H61S, D76G, Y107P
VL: B1 VL
notes: Fab, E. coli lysate
B15: SEQ ID NO 57 (Fab, V domains shown)
VH: B11 VH with R23A, T28I, K78G, R100Q, P107Y
VL: B1 VL
notes: Fab, E. coli lysate
B16: SEQ ID NO 20 (Fab, V domains shown)
VH: B1 VH with A23R, Q26G, I56S, H61S, Y82T, Y107P
VL: B1 VL
notes: Fab, E. coli lysate
B17: SEQ ID NO 49 (Fab, V domains shown)
VH: B1 VH with V5T, T28I, Y33W, I56S, N57Y, S58G, D76G, D80S
VL: B1 VL
notes: Fab, E. coli lysate
B18: SEQ ID NO 27 (Fab, V domains shown)
VH: B1 VH with T28I, I56S, S58G, G78K, Y107P
VL: B1 VL
notes: Fab, E. coli lysate
B19: SEQ ID NO 24 (Fab, V domains shown)
VH: B1 VH with V5T, Q26G, F27S, T28I, Y33W, S58G, H61S, D80S, Y82T, Y107P
VL: B1 VL
notes: Fab, E. coli lysate
B20: SEQ ID NO 14 (Fab, V domains shown)
VH: B1 VH with V5T, Y33W, N57Y, S58G, D76G, Q100R, Y107P
VL: B1 VL
notes: Fab, E. coli lysate
B21: SEQ ID NO 26 (Fab, V domains shown)
VH: B1 VH with A23R, N57Y, G78K, Y82T, Q100R
VL: B1 VL
notes: Fab, E. coli lysate
B22: SEQ ID NO 42 (Fab, V domains shown)
VH: B11 VH with T5V, R23A, W33Y, H61S, T79N, Y82T
VL: B1 VL
notes: Fab, E. coli lysate
B23: SEQ ID NO 54 (Fab, V domains shown)
VH: B1 VH with V5T, Q26G, F27S, T28I, N57Y, S58G, H61S, D76G, D80S, Y107P
VL: B1 VL
notes: Fab, E. coli lysate
B24: SEQ ID NO 13 (Fab, V domains shown)
VH: B11 VH with R23A, F27S, T28I, W33Y, Y57N, S80D, P107Y
VL: B1 VL
notes: Fab, E. coli lysate
B25: SEQ ID NO 31 (Fab, V domains shown)
VH: B1 VH with V5T, T28I, I56S, N57Y, S58G, D76G, G78K, N79T, Y82T
VL: B1 VL
notes: Fab, E. coli lysate
B26: SEQ ID NO 28 (Fab, V domains shown)
VH: B11 VH with T5V, R23A, F27S, S58G, H61S, D76G, K78G, T79N, Y82T, R100Q
VL: B1 VL
notes: Fab, E. coli lysate
B27: SEQ ID NO 5 (Fab, V domains shown)
VH: B1 VH with V5T, Y33W, G78K, D80S, Y82T, Q100R
VL: B1 VL
notes: Fab, E. coli lysate
B28: SEQ ID NO 33 (Fab, V domains shown)
VH: B11 VH with T5V, F27S, T28I, W33Y, Y57N, S58G, T79N, P107Y
VL: B1 VL
notes: Fab, E. coli lysate
B29: SEQ ID NO 36 (Fab, V domains shown)
VH: B1 VH with N57Y, S58G, H61S, N79T, D80S, Q100R
VL: B1 VL
notes: Fab, E. coli lysate
B30: SEQ ID NO 52 (Fab, V domains shown)
VH: B11 VH with T5V, F27S, T28I, D76G, K78G, T79N, Y82T, P107Y
VL: B1 VL
notes: Fab, E. coli lysate
B31: SEQ ID NO 8 (Fab, V domains shown)
VH: B1 VH with V5T, A23R, Q26G, F27S, S58G, D76G
VL: B1 VL
notes: Fab, E. coli lysate
B32: SEQ ID NO 23 (Fab, V domains shown)
VH: B11 VH with R23A, F27S, T28I, S56I, S58G, K78G, S80D, P107Y
VL: B1 VL
notes: Fab, E. coli lysate
B33: SEQ ID NO 4 (Fab, V domains shown)
VH: B11 VH with T28I, H61S, R100Q, P107Y
VL: B1 VL
notes: Fab, E. coli lysate
B34: SEQ ID NO 10 (Fab, V domains shown)
VH: B1 VH with V5T, A23R, Q26G, T28I, H61S, G78K, Y82T, Q100R
VL: B1 VL
notes: Fab, E. coli lysate
B35: SEQ ID NO 51 (Fab, V domains shown)
VH: B11 VH with T28I, W33Y, H61S, D76G, T79N, S80D, Y82T, P107Y
VL: B1 VL
notes: Fab, E. coli lysate
B36: SEQ ID NO 58 (Fab, V domains shown)
VH: B1 VH with V5T, T28I, Y33W, I56S, H61S
VL: B1 VL
notes: Fab, E. coli lysate
B37: SEQ ID NO 45 (Fab, V domains shown)
VH: B11 VH with T5V, T28I, S56I, D76G, K78G, T79N, S80D, Y82T
VL: B1 VL
notes: Fab, E. coli lysate

Molecular target: T1, human tumor necrosis factor-α (rHuTNF-alpha, Biosource) (human, UniProt P01375 77-233)
T1 construct: Bought recombinant protein coated on ELISA plates; The TNFα of the Biacore assay is not described further; also called TNFα; human TNFα
Experiment: solid-phase ELISA, Fab lysate on coated rHuTNF-alpha
Description: The Fab libraries were cloned into pTrcHis2A (Cat. No. V365-20, Invitrogen, Carlsbad, Calif.). Proteins were expressed in E. coli and solid-phase ELISA was used to assess Fab binding to human TNFα. Briefly, 96-well plates were coated overnight at 4° C. with 1 μg/ml of rHuTNF-alpha (Biosource, Camarillo, Calif.) in Carbonate-bicarbonate buffer, pH9.4. After washing in PBS with 0.05% (w/v) Tween-20, the wells were blocked with 1% (w/v) BSA in PBS for 1 hour at room temperature. After washing, plates were incubated with transformed E. coli cell lysate diluted in the assay buffer (1% BSA and 0.05% Tween-20 in 10 mM PBS) for 2 hours at room temperature. Various concentrations of infliximab (0.5, 1 and 2 ng/ml) were used as positive anti-Human Kappa Light Chain Biotin/anti-penta-His Biotin control. Plates were washed and incubated with ImmunoPure Goat Anti-Human Kappa Chain, Biotin Conjugated (Cat. No. 31780, Pierce Biotechnology, Rockford, Ill.) and Penta-His Biotin Conjugate (Cat. No. 34440, QIAGEN, Valencia, Calif.) diluted 1:2000 in the assay buffer for 1 hour at room temperature. Following another washing step, plates were probed for 1 hour at room temperature with 100 μL/well of Streptavidin POD (Cat. No. 1089153, Roche Applied Science, Indianapolis, Ind.) diluted 1:4000 in the assay buffer. Plates were further washed and then incubated with 3,3′,5,5′-tetramentylbenzidine (TMB, Cat. No. 34028, Pierce Biotechnology) for 30 minutes. Substrate development was stopped by addition of 100 μL/well TMB Stop Solution (Cat. No. 50-85-05, KPL, Gaithersburg, Md.) and the absorbance was measured at 450 nm via an automated plate spectrophotometer.

T1 sequence (P01375 77-233 limits assumed): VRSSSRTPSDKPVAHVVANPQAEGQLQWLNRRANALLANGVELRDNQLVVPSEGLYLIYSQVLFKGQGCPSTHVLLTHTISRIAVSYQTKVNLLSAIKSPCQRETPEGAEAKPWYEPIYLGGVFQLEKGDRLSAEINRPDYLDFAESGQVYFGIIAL

Row | Binder | binding result
1 | B1 | binds
2 | B2 | binds
3 | B3 | binds
4 | B4 | binds
5 | B5 | binds
6 | B6 | binds
7 | B7 | binds
8 | B8 | binds
9 | B9 | binds
10 | B10 | binds
11 | B11 | binds
12 | B12 | binds
13 | B13 | binds
14 | B14 | binds
15 | B15 | binds
16 | B16 | binds
17 | B17 | binds
18 | B18 | binds
19 | B19 | binds

Row | Binder | binding result
20 | B20 | binds
21 | B21 | binds
22 | B22 | binds
23 | B23 | binds
24 | B24 | binds
25 | B25 | binds
26 | B26 | binds
27 | B27 | binds
28 | B28 | binds
29 | B29 | binds
30 | B30 | binds
31 | B31 | binds
32 | B32 | binds
33 | B33 | binds
34 | B34 | binds
35 | B35 | binds
36 | B36 | binds
37 | B37 | binds
